Results reported in publication PMC2330239 (Nucleic Acids Research, 2008).

Tests used:
[1] = target: T1, NCoA-1 PAS-B domain fragment 257–385 (human, UniProt Q15788 257-385); assay: NMR titration
T1 sequence: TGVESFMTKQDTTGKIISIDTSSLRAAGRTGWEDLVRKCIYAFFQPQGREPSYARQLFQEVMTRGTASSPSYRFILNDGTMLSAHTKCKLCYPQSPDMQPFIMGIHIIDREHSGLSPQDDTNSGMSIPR

[2] = target: T2, GST fusion protein of the NCoA-1 PAS-B domain, hNCoA-1 (260–370) (human, UniProt Q15788 260-370); assay: pull-down
T2 sequence: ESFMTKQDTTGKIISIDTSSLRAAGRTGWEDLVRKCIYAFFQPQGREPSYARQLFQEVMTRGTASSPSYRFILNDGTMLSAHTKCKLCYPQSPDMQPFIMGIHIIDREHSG

## EGRNDEKALLEQLVSFLSGKD [peptide representing LXXLL motif 5 of human NCoA-1]
[1]
  binding result: binds
[2]
  binding result: binds

## EDQCISSQLDELLCPPTTVEG [peptide representing LXXLL motif 4 of human NCoA-1]
[1]
  binding result: binds
[2]
  binding result: binds

## LLPPTEQDLTKLLLEGQGESG [human STAT6 motif peptide, STAT6 (794–814)]
[1]
  binding result: binds
[2]
  binding result: binds
